Test results taken from article PMC4331651, “The use of SMALPs as a novel membrane protein scaffold for structure study by negative stain electron microscopy” (Biochimica et Biophysica Acta, 2015).

Columns and labels:
AcrB = target: T1, AcrB (Escherichia coli, UniProt P31224); assay: fluorescence polarization titration of R6G with AcrB SMALP; assay type: binding
T1 construct: full-length AcrB with C-terminal octahistidine tag (kept); expressed in E. coli, extracted with styrene maleic acid co-polymer into SMALPs, cobalt resin purified; 110 kDa band; homotrimer (~360 kDa)
T1 sequence (P31224 whole entry): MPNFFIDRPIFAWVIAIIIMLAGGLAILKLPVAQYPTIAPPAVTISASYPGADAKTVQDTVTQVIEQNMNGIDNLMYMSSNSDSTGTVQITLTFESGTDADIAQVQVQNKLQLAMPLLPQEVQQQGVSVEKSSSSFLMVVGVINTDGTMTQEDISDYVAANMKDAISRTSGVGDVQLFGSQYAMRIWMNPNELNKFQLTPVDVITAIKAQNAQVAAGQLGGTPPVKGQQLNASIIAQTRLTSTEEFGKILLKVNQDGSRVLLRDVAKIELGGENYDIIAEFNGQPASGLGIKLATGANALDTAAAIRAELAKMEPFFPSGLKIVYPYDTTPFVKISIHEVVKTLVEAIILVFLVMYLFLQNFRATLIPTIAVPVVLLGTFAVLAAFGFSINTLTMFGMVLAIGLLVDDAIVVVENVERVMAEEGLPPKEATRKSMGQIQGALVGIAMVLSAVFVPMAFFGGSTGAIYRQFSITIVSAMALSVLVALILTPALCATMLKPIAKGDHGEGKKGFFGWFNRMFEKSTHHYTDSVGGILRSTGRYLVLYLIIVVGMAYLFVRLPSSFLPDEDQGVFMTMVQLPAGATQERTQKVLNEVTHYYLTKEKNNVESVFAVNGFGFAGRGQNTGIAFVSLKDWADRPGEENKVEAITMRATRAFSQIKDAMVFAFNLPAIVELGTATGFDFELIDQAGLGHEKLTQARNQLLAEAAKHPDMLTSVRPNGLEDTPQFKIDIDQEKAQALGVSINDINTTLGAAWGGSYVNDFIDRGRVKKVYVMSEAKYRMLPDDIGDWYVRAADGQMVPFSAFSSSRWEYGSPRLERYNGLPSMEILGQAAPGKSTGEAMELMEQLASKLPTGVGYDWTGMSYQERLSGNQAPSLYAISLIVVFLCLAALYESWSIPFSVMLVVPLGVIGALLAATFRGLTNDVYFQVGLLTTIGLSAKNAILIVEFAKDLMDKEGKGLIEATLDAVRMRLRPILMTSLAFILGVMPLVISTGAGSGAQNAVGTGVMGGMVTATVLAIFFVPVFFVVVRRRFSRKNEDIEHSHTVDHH
From the text: fluorescence polarization titration of R6G with AcrB SMALP on AcrB | measure the Kd value of rhodamine 6G binding.

[1] = target: Escherichia coli multidrug transporter AcrB bearing a C-terminal octahistidine tag, in SMA lipid particles (SMALPs) (Escherichia coli) (UniProt P31224); assay: negative stain electron microscopy (single particle, 3D reconstruction); protomers to trimer; AcrB SMALPs ~20 ug/mL on carbon-coated grids, 1% uranyl acetate; 6884 singlet particles; refined with C1 and with C3 symmetry
[2] = target: Escherichia coli multidrug transporter AcrB bearing a C-terminal octahistidine tag, in SMA lipid particles (SMALPs) (Escherichia coli) (UniProt P31224); assay: AUC; protomers to trimer; sedimentation velocity, 0.5 mg/mL AcrB-SMALP, 50 mM Tris pH 8 with 10 mM or 500 mM NaCl, 40,000 rpm, 20 h, 4 °C, c(s) analysis

| Compound | Kd (AcrB) [nM] | stoichiometry N [1] | stoichiometry N [2] |
| --- | --- | --- | --- |
| CCN=c1cc2oc3cc(NCC)c(C)cc3c(-c3ccccc3C(=O)OCC)c-2cc1C [rhodamine 6G] | 52 ± 6.6 | – | – |
| Escherichia coli multidrug transporter AcrB bearing a C-terminal octahistidine tag, in SMA lipid particles (SMALPs) (from UniProt P31224 1-1049) (natural protein) | – | 3 | 3 |
